The record followed here is patent US20210388087A1 (Chugai, published 2021).

First the molecules themselves.
B1: CE115HA000 A56L one-arm antibody (antibody, human IgG1, kappa, L234A L235A, N297A, name in Kabat numbering)
heavy: QVQLVESGGGVVQPGRSLRLSCAASGFTFSNAWMHWVRQAPGKGLEWVAQIKAKSNNYLTYYAESVKGRFTISRDDSKNSLYLQMNSLKTEDTAVYYCRYVHYGAYYGVDAWGQGTTVTVSSASTKGPSVFPLAPSSKSTSGGTAALGCLVKDYFPEPVTVSWNSGALTSGVHTFPAVLQSSGLYSLSSVVTVPSSSLGTQTYICNVNHKPSNTKVDKKVEPKSCDKTHTCPPCPAPEAAGGPSVFLFPPKPKDTLMISRTPEVTCVVVDVSHEDPEVKFNWYVDGVEVHNAKTKPREEQYASTYRVVSVLTVLHQDWLNGKEYKCKVSNKALPAPIEKTISKAKGQPREPQVYTLPPSRCELTKNQVSLSCAVKGFYPSDIAVEWESNGQPENNYKTTPPVLDSDGSFFLVSKLTVDKSRWQQGNVFSCSVMHEALHNHYTQKSLSLSPDYKDDDDK
chain: EPKSSDKTHTCPPCPAPELLGGPSVFLFPPKPKDTLMISRTPEVTCVVVDVSHEDPEVKFNWYVDGVEVHNAKTKPREEQYNSTYRVVSVLTVLHQDWLNGKEYKCKVSNKALPAPIEKTISKAKGQPREPQVCTLPPSRDELTKNQVSLWCLVKGFYPSDIAVEWESNGQPENNYKTTPPVLDSDGSFFLYSKLTVDKSRWQQGNVFSCSVMHEALHNRYTQKSLSLSP
light: DIVMTQSPLSLPVTPGEPASISCRSSQSLVHSNRNTYLHWYQQKPGQAPRLLIYKVSNRFSGVPDRFSGSGSGTDFTLKISRVEAEDVGVYYCGQGTQVPYTFGQGTKLEIKRTVAAPSVFIFPPSDEQLKSGTASVVCLLNNFYPREAKVQWKVDNALQSGNSQESVTEQDSKDSTYSLSSTLTLSKADYEKHKVYACEVTHQGLSSPVTKSFNRGEC
B2: CE115HA000 A56Q one-arm antibody (antibody, human IgG1, kappa, L234A L235A, N297A, name in Kabat numbering)
heavy: QVQLVESGGGVVQPGRSLRLSCAASGFTFSNAWMHWVRQAPGKGLEWVAQIKAKSNNYQTYYAESVKGRFTISRDDSKNSLYLQMNSLKTEDTAVYYCRYVHYGAYYGVDAWGQGTTVTVSSASTKGPSVFPLAPSSKSTSGGTAALGCLVKDYFPEPVTVSWNSGALTSGVHTFPAVLQSSGLYSLSSVVTVPSSSLGTQTYICNVNHKPSNTKVDKKVEPKSCDKTHTCPPCPAPEAAGGPSVFLFPPKPKDTLMISRTPEVTCVVVDVSHEDPEVKFNWYVDGVEVHNAKTKPREEQYASTYRVVSVLTVLHQDWLNGKEYKCKVSNKALPAPIEKTISKAKGQPREPQVYTLPPSRCELTKNQVSLSCAVKGFYPSDIAVEWESNGQPENNYKTTPPVLDSDGSFFLVSKLTVDKSRWQQGNVFSCSVMHEALHNHYTQKSLSLSPDYKDDDDK
chain: EPKSSDKTHTCPPCPAPELLGGPSVFLFPPKPKDTLMISRTPEVTCVVVDVSHEDPEVKFNWYVDGVEVHNAKTKPREEQYNSTYRVVSVLTVLHQDWLNGKEYKCKVSNKALPAPIEKTISKAKGQPREPQVCTLPPSRDELTKNQVSLWCLVKGFYPSDIAVEWESNGQPENNYKTTPPVLDSDGSFFLYSKLTVDKSRWQQGNVFSCSVMHEALHNRYTQKSLSLSP
light: DIVMTQSPLSLPVTPGEPASISCRSSQSLVHSNRNTYLHWYQQKPGQAPRLLIYKVSNRFSGVPDRFSGSGSGTDFTLKISRVEAEDVGVYYCGQGTQVPYTFGQGTKLEIKRTVAAPSVFIFPPSDEQLKSGTASVVCLLNNFYPREAKVQWKVDNALQSGNSQESVTEQDSKDSTYSLSSTLTLSKADYEKHKVYACEVTHQGLSSPVTKSFNRGEC
B3: CE115HA000 A56N one-arm antibody (antibody, human IgG1, kappa, L234A L235A, N297A, name in Kabat numbering)
heavy: QVQLVESGGGVVQPGRSLRLSCAASGFTFSNAWMHWVRQAPGKGLEWVAQIKAKSNNYNTYYAESVKGRFTISRDDSKNSLYLQMNSLKTEDTAVYYCRYVHYGAYYGVDAWGQGTTVTVSSASTKGPSVFPLAPSSKSTSGGTAALGCLVKDYFPEPVTVSWNSGALTSGVHTFPAVLQSSGLYSLSSVVTVPSSSLGTQTYICNVNHKPSNTKVDKKVEPKSCDKTHTCPPCPAPEAAGGPSVFLFPPKPKDTLMISRTPEVTCVVVDVSHEDPEVKFNWYVDGVEVHNAKTKPREEQYASTYRVVSVLTVLHQDWLNGKEYKCKVSNKALPAPIEKTISKAKGQPREPQVYTLPPSRCELTKNQVSLSCAVKGFYPSDIAVEWESNGQPENNYKTTPPVLDSDGSFFLVSKLTVDKSRWQQGNVFSCSVMHEALHNHYTQKSLSLSPDYKDDDDK
chain: EPKSSDKTHTCPPCPAPELLGGPSVFLFPPKPKDTLMISRTPEVTCVVVDVSHEDPEVKFNWYVDGVEVHNAKTKPREEQYNSTYRVVSVLTVLHQDWLNGKEYKCKVSNKALPAPIEKTISKAKGQPREPQVCTLPPSRDELTKNQVSLWCLVKGFYPSDIAVEWESNGQPENNYKTTPPVLDSDGSFFLYSKLTVDKSRWQQGNVFSCSVMHEALHNRYTQKSLSLSP
light: DIVMTQSPLSLPVTPGEPASISCRSSQSLVHSNRNTYLHWYQQKPGQAPRLLIYKVSNRFSGVPDRFSGSGSGTDFTLKISRVEAEDVGVYYCGQGTQVPYTFGQGTKLEIKRTVAAPSVFIFPPSDEQLKSGTASVVCLLNNFYPREAKVQWKVDNALQSGNSQESVTEQDSKDSTYSLSSTLTLSKADYEKHKVYACEVTHQGLSSPVTKSFNRGEC
B4: CE115HA000 A60E one-arm antibody (antibody, human IgG1, kappa, L234A L235A, N297A, name in Kabat numbering)
heavy: QVQLVESGGGVVQPGRSLRLSCAASGFTFSNAWMHWVRQAPGKGLEWVAQIKAKSNNYATYYEESVKGRFTISRDDSKNSLYLQMNSLKTEDTAVYYCRYVHYGAYYGVDAWGQGTTVTVSSASTKGPSVFPLAPSSKSTSGGTAALGCLVKDYFPEPVTVSWNSGALTSGVHTFPAVLQSSGLYSLSSVVTVPSSSLGTQTYICNVNHKPSNTKVDKKVEPKSCDKTHTCPPCPAPEAAGGPSVFLFPPKPKDTLMISRTPEVTCVVVDVSHEDPEVKFNWYVDGVEVHNAKTKPREEQYASTYRVVSVLTVLHQDWLNGKEYKCKVSNKALPAPIEKTISKAKGQPREPQVYTLPPSRCELTKNQVSLSCAVKGFYPSDIAVEWESNGQPENNYKTTPPVLDSDGSFFLVSKLTVDKSRWQQGNVFSCSVMHEALHNHYTQKSLSLSPDYKDDDDK
chain: EPKSSDKTHTCPPCPAPELLGGPSVFLFPPKPKDTLMISRTPEVTCVVVDVSHEDPEVKFNWYVDGVEVHNAKTKPREEQYNSTYRVVSVLTVLHQDWLNGKEYKCKVSNKALPAPIEKTISKAKGQPREPQVCTLPPSRDELTKNQVSLWCLVKGFYPSDIAVEWESNGQPENNYKTTPPVLDSDGSFFLYSKLTVDKSRWQQGNVFSCSVMHEALHNRYTQKSLSLSP
light: DIVMTQSPLSLPVTPGEPASISCRSSQSLVHSNRNTYLHWYQQKPGQAPRLLIYKVSNRFSGVPDRFSGSGSGTDFTLKISRVEAEDVGVYYCGQGTQVPYTFGQGTKLEIKRTVAAPSVFIFPPSDEQLKSGTASVVCLLNNFYPREAKVQWKVDNALQSGNSQESVTEQDSKDSTYSLSSTLTLSKADYEKHKVYACEVTHQGLSSPVTKSFNRGEC
B5: CE115HA000 A56Y one-arm antibody (antibody, human IgG1, kappa, L234A L235A, N297A, name in Kabat numbering)
heavy: QVQLVESGGGVVQPGRSLRLSCAASGFTFSNAWMHWVRQAPGKGLEWVAQIKAKSNNYYTYYAESVKGRFTISRDDSKNSLYLQMNSLKTEDTAVYYCRYVHYGAYYGVDAWGQGTTVTVSSASTKGPSVFPLAPSSKSTSGGTAALGCLVKDYFPEPVTVSWNSGALTSGVHTFPAVLQSSGLYSLSSVVTVPSSSLGTQTYICNVNHKPSNTKVDKKVEPKSCDKTHTCPPCPAPEAAGGPSVFLFPPKPKDTLMISRTPEVTCVVVDVSHEDPEVKFNWYVDGVEVHNAKTKPREEQYASTYRVVSVLTVLHQDWLNGKEYKCKVSNKALPAPIEKTISKAKGQPREPQVYTLPPSRCELTKNQVSLSCAVKGFYPSDIAVEWESNGQPENNYKTTPPVLDSDGSFFLVSKLTVDKSRWQQGNVFSCSVMHEALHNHYTQKSLSLSPDYKDDDDK
chain: EPKSSDKTHTCPPCPAPELLGGPSVFLFPPKPKDTLMISRTPEVTCVVVDVSHEDPEVKFNWYVDGVEVHNAKTKPREEQYNSTYRVVSVLTVLHQDWLNGKEYKCKVSNKALPAPIEKTISKAKGQPREPQVCTLPPSRDELTKNQVSLWCLVKGFYPSDIAVEWESNGQPENNYKTTPPVLDSDGSFFLYSKLTVDKSRWQQGNVFSCSVMHEALHNRYTQKSLSLSP
light: DIVMTQSPLSLPVTPGEPASISCRSSQSLVHSNRNTYLHWYQQKPGQAPRLLIYKVSNRFSGVPDRFSGSGSGTDFTLKISRVEAEDVGVYYCGQGTQVPYTFGQGTKLEIKRTVAAPSVFIFPPSDEQLKSGTASVVCLLNNFYPREAKVQWKVDNALQSGNSQESVTEQDSKDSTYSLSSTLTLSKADYEKHKVYACEVTHQGLSSPVTKSFNRGEC
B6: CE115HA000 A60D one-arm antibody (antibody, human IgG1, kappa, L234A L235A, N297A, name in Kabat numbering)
heavy: QVQLVESGGGVVQPGRSLRLSCAASGFTFSNAWMHWVRQAPGKGLEWVAQIKAKSNNYATYYDESVKGRFTISRDDSKNSLYLQMNSLKTEDTAVYYCRYVHYGAYYGVDAWGQGTTVTVSSASTKGPSVFPLAPSSKSTSGGTAALGCLVKDYFPEPVTVSWNSGALTSGVHTFPAVLQSSGLYSLSSVVTVPSSSLGTQTYICNVNHKPSNTKVDKKVEPKSCDKTHTCPPCPAPEAAGGPSVFLFPPKPKDTLMISRTPEVTCVVVDVSHEDPEVKFNWYVDGVEVHNAKTKPREEQYASTYRVVSVLTVLHQDWLNGKEYKCKVSNKALPAPIEKTISKAKGQPREPQVYTLPPSRCELTKNQVSLSCAVKGFYPSDIAVEWESNGQPENNYKTTPPVLDSDGSFFLVSKLTVDKSRWQQGNVFSCSVMHEALHNHYTQKSLSLSPDYKDDDDK
chain: EPKSSDKTHTCPPCPAPELLGGPSVFLFPPKPKDTLMISRTPEVTCVVVDVSHEDPEVKFNWYVDGVEVHNAKTKPREEQYNSTYRVVSVLTVLHQDWLNGKEYKCKVSNKALPAPIEKTISKAKGQPREPQVCTLPPSRDELTKNQVSLWCLVKGFYPSDIAVEWESNGQPENNYKTTPPVLDSDGSFFLYSKLTVDKSRWQQGNVFSCSVMHEALHNRYTQKSLSLSP
light: DIVMTQSPLSLPVTPGEPASISCRSSQSLVHSNRNTYLHWYQQKPGQAPRLLIYKVSNRFSGVPDRFSGSGSGTDFTLKISRVEAEDVGVYYCGQGTQVPYTFGQGTKLEIKRTVAAPSVFIFPPSDEQLKSGTASVVCLLNNFYPREAKVQWKVDNALQSGNSQESVTEQDSKDSTYSLSSTLTLSKADYEKHKVYACEVTHQGLSSPVTKSFNRGEC
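Further: homodimer attached to the sensor surface via amine coupling, HBS-EP+ used as running buffer during binding runs.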

The target of the assay is T1, CD3 epsilon homodimer protein (UniProt P07766 23-126).
T1 construct: immobilized on Sensor chip CM4 by amine coupling; also called CD3 (CD3 epsilon)
T1 sequence (P07766 23-126): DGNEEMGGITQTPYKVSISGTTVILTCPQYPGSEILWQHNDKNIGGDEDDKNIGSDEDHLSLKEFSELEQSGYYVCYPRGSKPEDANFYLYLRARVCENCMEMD
As to the kind of experiment: SPR (Biacore T200), CD3 epsilon homodimer on CM4 chip, one-arm antibody as analyte, 25 C. (In SPR one partner is held on a chip, and binding of the other changes the refractive index at the surface.)
As to B1, the “ratio of amounts bound (altered form / CE115HA000)” value came to 0.8.

Take B2: the “ratio of amounts bound (altered form / CE115HA000)” value was determined as 0.76.

Regarding B3, the “ratio of amounts bound (altered form / CE115HA000)” value came to 0.87.

Consider B4, for which the “ratio of amounts bound (altered form / CE115HA000)” value came out at 0.94.

On to B5, for which the “ratio of amounts bound (altered form / CE115HA000)” value worked out at 0.66.

For the molecule B6, the “ratio of amounts bound (altered form / CE115HA000)” value is 0.99.
